Results on one molecule are retold here after US20140271602, “NUCLEOTIDE-SPECIFIC RECOGNITION SEQUENCES FOR DESIGNER TAL EFFECTORS” (THE BROAD INSTITUTE INC., published 2014).

What all share (assay): cell_activity; endogenous CACNA1C mRNA
Common to all, as to settings: tags: SID

In one data set the target is T1, TALE1-NH repressor (Xanthomonas (engineered), UniProt P14727 SEQ:1-983).
T1 chain: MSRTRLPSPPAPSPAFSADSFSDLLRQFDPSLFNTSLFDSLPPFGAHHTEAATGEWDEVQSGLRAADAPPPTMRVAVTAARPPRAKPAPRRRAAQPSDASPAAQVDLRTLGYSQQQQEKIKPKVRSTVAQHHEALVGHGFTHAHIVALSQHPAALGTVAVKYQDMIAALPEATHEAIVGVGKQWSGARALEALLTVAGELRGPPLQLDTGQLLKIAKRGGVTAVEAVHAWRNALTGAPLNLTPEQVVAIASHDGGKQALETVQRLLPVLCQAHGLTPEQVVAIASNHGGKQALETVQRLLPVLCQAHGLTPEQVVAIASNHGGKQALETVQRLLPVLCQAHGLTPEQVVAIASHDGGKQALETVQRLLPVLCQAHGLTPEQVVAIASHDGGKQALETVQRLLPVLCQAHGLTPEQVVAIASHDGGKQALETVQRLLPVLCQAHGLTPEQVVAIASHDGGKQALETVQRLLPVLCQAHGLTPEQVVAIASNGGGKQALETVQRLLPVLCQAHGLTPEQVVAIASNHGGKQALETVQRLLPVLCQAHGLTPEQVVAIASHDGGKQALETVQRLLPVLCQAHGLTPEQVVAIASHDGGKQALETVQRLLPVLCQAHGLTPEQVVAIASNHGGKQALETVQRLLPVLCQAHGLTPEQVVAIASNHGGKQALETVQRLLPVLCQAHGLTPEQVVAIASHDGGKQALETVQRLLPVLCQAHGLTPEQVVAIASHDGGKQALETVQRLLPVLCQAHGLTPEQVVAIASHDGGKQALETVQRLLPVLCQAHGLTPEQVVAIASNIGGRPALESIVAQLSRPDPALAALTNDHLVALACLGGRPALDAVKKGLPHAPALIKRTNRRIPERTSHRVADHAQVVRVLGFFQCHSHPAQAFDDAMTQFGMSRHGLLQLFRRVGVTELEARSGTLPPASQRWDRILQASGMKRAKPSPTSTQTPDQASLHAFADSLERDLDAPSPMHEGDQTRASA

The target of the next data set is T2, TALE1-NN repressor (Xanthomonas (engineered), UniProt P14727 SEQ:1-983).
T2 chain: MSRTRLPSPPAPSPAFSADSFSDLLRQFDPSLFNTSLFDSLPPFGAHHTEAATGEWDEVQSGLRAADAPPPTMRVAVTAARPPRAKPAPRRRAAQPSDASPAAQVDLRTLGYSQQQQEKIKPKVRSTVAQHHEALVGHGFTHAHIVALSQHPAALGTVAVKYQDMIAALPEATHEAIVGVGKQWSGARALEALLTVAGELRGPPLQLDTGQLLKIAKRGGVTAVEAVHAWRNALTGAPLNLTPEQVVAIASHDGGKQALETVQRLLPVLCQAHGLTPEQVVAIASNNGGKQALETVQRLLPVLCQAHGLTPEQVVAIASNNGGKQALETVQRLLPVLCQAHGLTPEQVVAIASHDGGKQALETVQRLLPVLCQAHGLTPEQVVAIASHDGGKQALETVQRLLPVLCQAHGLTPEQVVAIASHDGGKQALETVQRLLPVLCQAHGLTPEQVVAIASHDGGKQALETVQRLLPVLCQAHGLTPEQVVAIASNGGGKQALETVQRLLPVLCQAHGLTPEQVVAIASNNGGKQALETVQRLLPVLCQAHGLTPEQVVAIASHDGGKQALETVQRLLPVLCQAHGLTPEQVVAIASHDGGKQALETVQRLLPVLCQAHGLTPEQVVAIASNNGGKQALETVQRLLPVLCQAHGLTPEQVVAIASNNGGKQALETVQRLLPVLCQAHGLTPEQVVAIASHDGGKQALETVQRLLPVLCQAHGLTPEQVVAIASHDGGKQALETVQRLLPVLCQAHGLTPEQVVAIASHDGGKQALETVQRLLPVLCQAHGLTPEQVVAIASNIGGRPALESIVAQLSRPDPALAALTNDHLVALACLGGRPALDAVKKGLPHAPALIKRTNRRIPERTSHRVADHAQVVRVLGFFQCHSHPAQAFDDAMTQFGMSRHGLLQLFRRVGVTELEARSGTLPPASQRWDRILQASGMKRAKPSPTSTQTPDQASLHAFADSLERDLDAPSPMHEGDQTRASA

In the next data set the target is T3, TALE1-NK repressor (Xanthomonas (engineered), UniProt P14727 SEQ:1-983).
T3 chain: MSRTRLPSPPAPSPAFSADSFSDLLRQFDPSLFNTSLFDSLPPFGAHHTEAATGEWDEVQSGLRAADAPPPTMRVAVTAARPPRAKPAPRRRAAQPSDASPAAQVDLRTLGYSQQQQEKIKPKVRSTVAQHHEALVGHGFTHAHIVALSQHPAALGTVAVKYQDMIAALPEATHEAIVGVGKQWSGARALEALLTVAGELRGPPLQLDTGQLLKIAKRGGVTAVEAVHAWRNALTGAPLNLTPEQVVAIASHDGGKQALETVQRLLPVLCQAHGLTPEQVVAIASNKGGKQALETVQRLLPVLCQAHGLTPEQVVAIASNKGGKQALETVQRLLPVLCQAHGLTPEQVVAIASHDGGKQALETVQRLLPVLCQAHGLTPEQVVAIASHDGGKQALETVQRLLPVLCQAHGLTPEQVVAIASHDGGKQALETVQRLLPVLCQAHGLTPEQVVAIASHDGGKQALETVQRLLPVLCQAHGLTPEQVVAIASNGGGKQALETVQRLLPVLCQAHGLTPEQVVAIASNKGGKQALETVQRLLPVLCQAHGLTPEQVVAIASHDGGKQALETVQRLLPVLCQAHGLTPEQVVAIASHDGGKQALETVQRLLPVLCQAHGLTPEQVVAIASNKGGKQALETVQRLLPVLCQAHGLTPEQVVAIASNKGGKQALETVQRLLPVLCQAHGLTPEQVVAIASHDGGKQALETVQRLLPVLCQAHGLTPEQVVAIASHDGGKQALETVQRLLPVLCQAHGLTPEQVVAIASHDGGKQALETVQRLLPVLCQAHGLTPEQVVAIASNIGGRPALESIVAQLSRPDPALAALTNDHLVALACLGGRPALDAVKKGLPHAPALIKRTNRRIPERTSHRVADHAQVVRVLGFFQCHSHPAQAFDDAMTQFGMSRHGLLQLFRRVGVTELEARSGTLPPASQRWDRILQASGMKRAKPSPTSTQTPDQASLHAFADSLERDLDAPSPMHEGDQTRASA

B1: CACNA1C site 1 (dsDNA)
DNA 1: TCGGCCCCTGCCGGCCCA
DNA 2: TGGGCCGGCAGGGGCCGA
Consider B1, for which the activity with TALE1-NH repressor is about 4 fold repression; in the data set with TALE1-NN repressor, about 4 fold repression; with TALE1-NK repressor, about 2 fold repression.
